Reference: the supplement of paper PMC12764529
± gives the half width of the 95% confidence interval.

Key:
[1] = folding stability dG unfold from trypsin proteolysis; higher = more stable
Outline: (§1)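 Only designs with AlphaFold2 dimer inter-PAE above 15 were retained; each was a mini-protein under 80 residues with no cysteine, in a PA-tagged cDNA display construct. After digestion with trypsin and chymotrypsin and sequencing, K50 was inferred by Bayesian fitting of counts, and unfolding free energy was derived per protease or combined against a sequence-predicted unfolded-state K50 and a shared folded-state K50.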

[2] = folding stability dG unfold from chymotrypsin proteolysis; higher = more stable
Outline: as §1

[3] = folding stability dG unfold (combined trypsin and chymotrypsin); higher = more stable
Outline: as §1

| Sequence | folding stability dG unfold [1] [kcal/mol] | folding stability dG unfold [2] [kcal/mol] | folding stability dG unfold [3] [kcal/mol] |
| --- | --- | --- | --- |
| SAMTIVLTLDEIAELLGLEKGESVEELRERIRELIRRLEEEGYRVTSITIEEVDGELVITVEIEPPPPESAG [r14_158_TrROS_Hall] | 3.38 ± 0.2 | 5.23 ± 0.21 | 4.89 ± 0.21 |
| SAMTKEEAKENGHIYIMVKIEVTWPNGGKREFPIFFPFPSLDEAKEQIRSFFRRMNFKVKIDDISIFPVSAG [r14_854_TrROS] | 2.98 ± 0.048 | 3.745 ± 0.027 | 3.53 ± 0.049 |
| SAMTLRIELTKEELEKLIKELKPGDEVELEIEVNGRTYRIRAKITRIERVDDKVYIEVELEIEELPEEESAG [r14_335_TrROS_Hall] | 4.46 ± 0.11 | 4.75 ± 0.064 | 4.63 ± 0.13 |
| SAMTLTLTVPPGAKVRVRITNENGETTEIEVEPGETVTITLPAGSTVRVEVEVVDPDGRKRTETFTLKPSAG [r14_568_TrROS_Hall] | 3.46 ± 0.11 | 3.22 ± 0.07 | 3.27 ± 0.15 |
| SAMTPEFFETIKEASREGDIAAVLEAAEAIKTEFPDTGLTVDVVIEPREDDRFVIEVRVDYPPNLEGLASAG [r14_690_TrMRF] | -0.142 ± 0.039 | -0.212 ± 0.11 | -0.0704 ± 0.18 |
| SAMTPETERKLLEAPKTGDVEAVREAAEEIEKEYPGKGLVVTVTVSPLSDGTWEVEVTVELPPNLPELASAG [r14_690_JUSTAS] | 0.702 ± 0.12 | 0.27 ± 0.097 | 0.437 ± 0.38 |
| SAMTVEIEFPPELEVEELVEKLKEAFPGEEIEVEAERDPVEPRLRIRVTVDDPELAEEVEKKLRELVEESAG [r14_443_TrMRF] | 3.34 ± 0.15 | 2.21 ± 0.1 | 3 ± 0.12 |
| SAMTVERLPDGSLRITIPDPNSDTTYTIEIRRLPDGSYEVTITTTKPDGSTTTTTRPMSEEEAIAEVLASAG [r14_179_JUSTAS] | 3.75 ± 0.061 | 3.54 ± 0.068 | 3.6 ± 0.055 |
| SAMTVVIPPNLTALTEDGRPIHPDQVVEVYEAEAFPELGRVVARVKVFDPVSGEETEERLVLFFPDGAESAG [r14_258_TrMRF] | 1.26 ± 0.033 | 1.66 ± 0.021 | 1.53 ± 0.036 |
| SAMTVYYKITAEVEKTIGDTPETLTVPLTLTVPPDKLNEEEIKKIAEEKAKELGYTLKKIEISKTPSLPSAG [r14_278_JUSTAS] | 2.22 ± 0.084 | 2.06 ± 0.17 | 2.11 ± 0.21 |
| SAMTYTLTPAGGKTITVTLNPDGSITITSTSTSSSLPLSPDAKITSVTFDAATGTITITLNSKPITIPASAG [r14_276_JUSTAS] | 1.9 ± 0.057 | 1.74 ± 0.17 | 1.92 ± 0.15 |
| SAMVIPAEVRLPGTPEEVLEKAREFADTLAARFRELGFEVVAVELEEIEPGEAVVRLRIVVARPDEEFPSAG [r14_973_TrMRF] | 2.75 ± 0.086 | 2.79 ± 0.03 | 2.85 ± 0.069 |
| SAMVITTSLEEARKRTGLSESASPEEVRAAVEALIAAETAAGVTLLAIELLEVGDTWTLRVEIERAGGVSAG [r14_158_JUSTAS] | 2.36 ± 0.057 | 1.72 ± 0.068 | 2.07 ± 0.077 |
| SAMVLDLTELLREKAAEIRKADPRPLTPEELRELAREAAEELAKETGKPITEIRVEETDEWPRITAVVLSAG [r14_147_JUSTAS] | 1.04 ± 0.044 | -0.358 ± 0.3 | 0.461 ± 0.24 |
| SAMVLRIKVEVNGETKEIEIELPPNAKIEKKDGELTIYVKNPETGKIFKFKFKKNAKIVEVEEVDPEDLSAG [r14_313_TrROS_Hall] | 2.6 ± 0.046 | 4.22 ± 0.052 | 3.83 ± 0.1 |
| SAMVTYDPEKGVFEAEIEVGGETLRVTVVRDPETGEVVAVVERPGSGEPVVLPLPFKSLSDVIRYAEEHSAG [r14_803_TrMRF] | 2.3 ± 0.07 | 2.49 ± 0.044 | 2.36 ± 0.11 |
| SAMVVIKPEGDKIVVEITLPDGSTKVIELPEVEKIEIKGDTLIITDPKTGKKIIPENTTVSNPKIEPAKSAG [r14_83_JUSTAS] | -0.167 ± 0.065 | -0.0623 ± 0.064 | 0.0698 ± 0.14 |
| SAMVVIPFPKDTPPEVALEAVRKAVREAAENGIVPEKIVVVAHPDLVFLVDSLVEAGIPLENVEFVPSESAG [r14_589_TrMRF] | 2.87 ± 0.069 | 2.86 ± 0.057 | 2.88 ± 0.052 |
| SAMVVPVKVELEIRVPGTPEEALEIAEELAKAFESLGNVEVDLELIEKSEDGSYIIKLTVTNYLPPELFSAG [r14_413_TrMRF] | 0.905 ± 0.1 | 1.99 ± 0.11 | 1.53 ± 0.21 |
| SAMYEPAEFSFTLPNGEKIHITAPKNPNTDEPIVSITIYRKLPDGNTVSFTITVKSSDIDEIIEKLGIKSAG [r14_416_TrMRF] | 3.39 ± 0.095 | 3.74 ± 0.11 | 3.67 ± 0.32 |
| SANDDDWVTVIFEIPIVRKDPDGKPEKHPFRLMVQVHPDGRVEINIMYPNGRPIASQTVPPGQTLEDFISAG [r14_559_TrROS] | 2.63 ± 0.13 | 3.84 ± 0.077 | 3.38 ± 0.23 |

| Sequence | folding stability dG unfold [1] [kcal/mol] | folding stability dG unfold [2] [kcal/mol] | folding stability dG unfold [3] [kcal/mol] |
| --- | --- | --- | --- |
| SANGEMTMMFEFEIFFPGLGYRGKIYVMMRIEPTPNQIRIDLMIMIEIEPIPPPPPKVPPEQNPEDADDSAG [r14_435_TrROS] | 3.82 ± 0.21 | 5.18 ± 0.2 | 5.23 ± 0.48 |
| SANGKEYTFTIEIRVRDPENGQPWTIRITVPIWYDPDDGKLDIDIDVTPTPGMPKEWAERIAKEIIEAISAG [r14_152_TrROS] | 3.04 ± 0.11 | 3.95 ± 0.048 | 3.6 ± 0.076 |
| SAPAVLLEEPDTLVEVEKLPDGSLLIRRVTKFPDGSVTVEISVIYPGGSLSVLESVTLNVPPEEPLPLLSAG [r14_42_JUSTAS] | 2.42 ± 0.054 | 1.46 ± 0.051 | 1.91 ± 0.073 |
| SAPDPEQRKKNREQQEKNERMIPIQIHVYDKDGKWKPIGPVWFKDPDVPIDDLVPTFHDEGFDYVSISISAG [r14_318_TrROS] | 0.153 ± 0.15 | 0.209 ± 0.23 | 0.299 ± 0.21 |
| SAPDWVKIKFPFRFYNPDPDGKPMAKMKLEIEVYPSPGAYMAKIEDPNFGMKITFPFDSPEEVKDFLQNSAG [r14_508_TrROS] | 1.25 ± 0.083 | 1.14 ± 0.25 | 1.23 ± 0.32 |
| SAPEVEVFPGKDNSALVRVVFEFDGYRIEVVRRVPVEALKAGIPLEELPDVEILEVRVVKLPKPRPDELSAG [r14_856_TrMRF] | 2.17 ± 0.056 | 2.85 ± 0.029 | 2.58 ± 0.061 |
| SAPEVFRFTIPRYRDDYEFDGDGYPVLKERKPVAPLEVEAVVFEDGTVRVRVGDEVREFPLGVSPEELFSAG [r14_909_TrMRF] | 0.601 ± 0.22 | 0.355 ± 0.18 | 0.566 ± 0.1 |
| SAPFTATETVVTEEEDPATGLTRIPVEMTVDDHPVTGEGVRDPADPSRVSFSITFPDSDLTLTGEEPLPSAG [r14_178_JUSTAS] | 0.491 ± 0.036 | -0.0428 ± 0.11 | 0.312 ± 0.048 |
| SAPGLRTYTIYDPSGVRRTFPPSWDVTILEYDPKTGTVTLKITKHNTDPGAPVSTETEKRKATFLRDVESAG [r14_927_JUSTAS] | 0.575 ± 0.09 | 0.824 ± 0.12 | 0.725 ± 0.061 |
| SAPIDIDLERDPEPGRLKATVEFPWPNGWMHRMTFDLQWPRIKVEHYPFKDGEPEPQEIEIPIPANAKVSAG [r14_64_TrROS] | 0.0882 ± 0.17 | 0.426 ± 0.24 | 0.338 ± 0.19 |
| SAPIKIEIDVHQPPPGDYMIMVRIRPPGDGKEFPRMFPFPPDDAEKILENLLSQFPGYEIDDIEPMRYPSAG [r14_969_TrROS] | 1.26 ± 0.049 | 1.08 ± 0.15 | 1.29 ± 0.16 |
| SAPKRYYIKIEIYDNGKKQEITIPIGATIKNPGGKEYTYPVDSPEDLEEALNDLFPPGFPIKIDDVHPPSAG [r14_41_TrROS] | 0.517 ± 0.042 | 1.21 ± 0.17 | 0.973 ± 0.11 |
| SAPMKIVKKTDNTLYIYDKKTKKIVKITINDGTITVEEITYDKKTKEKKVETKTIKLSEEQLKKLKKLLSAG [r14_245_TrROS_Hall] | 1.54 ± 0.079 | 0.7 ± 0.24 | 1.23 ± 0.14 |
| SAPNIEIDYNKDNGMITIRLPGTGVEYMIPMPDGQLMAIDIEVKPDPDGKRKISIEIYFPDGKEHEFEISAG [r14_675_TrROS] | 2.19 ± 0.29 | 2.45 ± 0.17 | 2.3 ± 0.39 |
| SAPNYVLVIKIKSTNTPYYIPVPEDVEIVVKKNKNGEITAVVKVKDPETGEYFVITFSGDAKIDKIEPVPSA [r9_467_TrMRF] | 2.21 ± 0.1 | 2.93 ± 0.082 | 2.63 ± 0.19 |
| SAPPETVEVEEVAEFELADGSKVTVAKVKLPNGETLVVVTVYNKDGEPVATFVVREGDPDALAEALKALSSA [r9_1069_TrROS_Hall] | 3.9 ± 0.3 | 4.56 ± 0.095 | 4.51 ± 0.13 |
| SAPPNHRMVMYEIPIPPGMEIGDEIKLKIKVPGKEYPIKIDRIPNLPPGMRVRIMFNLDNGQFMIQILPSAG [r14_554_TrROS] | 2.52 ± 0.1 | 2.69 ± 0.062 | 2.77 ± 0.26 |
| SAPPTVKINWERVRRNGKRYYMIRVEITHPNNGKEREHTFMYDDPEDFLDNLLKLPNIDRVEIEDIYPMSAG [r14_464_TrROS] | 1.64 ± 0.27 | 1.8 ± 0.2 | 2.12 ± 0.51 |
| SAPWVYHVRIEYKGPDGEPVAEHTIMVKTPEALKEQIRKHFGLSPAQIKNIEVEPVIPAEEMNEMQEKGSAG [r14_852_TrROS] | 0.204 ± 0.13 | 1.27 ± 0.12 | 0.882 ± 0.094 |
| SARILRVEFEPFPLTERARLRLEVEDEDNDFPYEVDIELEVLPDPSEVRLRLVVRRPDGSRRELELRLFSAG [r14_10_TrMRF] | 3.56 ± 0.086 | 4.97 ± 0.091 | 4.23 ± 0.091 |
| SARVYRLPDGRLVRFEPVPPRPPVIVIPVDFRISPDDPETRRRLAEEIRRRLLEELGLPEDTPIFVDPSSAG [r14_453_TrMRF] | 4.11 ± 0.18 | 4.45 ± 0.14 | 4.16 ± 0.22 |
